Source: paper PMC9394474 (2022)
Like-named read-outs stand apart in the source and are kept apart here. Ends that are not written are not given here.

B1: rbGYG1 322-333 peptide (peptide)
peptide: DNIKKKLDTYLQ
B2: N-terminal acetylated LQ (peptide)
peptide: Ac-Leu-Gln

Legend:
human hisTRIM7- [1] = target: T1, human hisTRIM7- (human, UniProt Q9C029 342-511); assay: ITC
human hisTRIM7- [2] = target: T1, human hisTRIM7-; assay: ITC; remark: listed apart in the source

Row | Binder | Kd (human hisTRIM7- [1]) [µM] | Kd (human hisTRIM7- [2]) [µM]
1 | B1 | 21.1 | –
2 | B2 | – | 144
